# Results: patent US20240301062A1 (BEIGENE SWITZERLAND, published 2024)
# Residue numbers refer to the chain shown, from its start. Read-outs that look alike come from different tables or passages of the source.
# B1: humanized sp34 scFv BG561P (scFv-Fc) (Fc fusion)
# scFv: EVQLVESGGGLVQPGGSLRLSCAASGFTFNTYAMNWVRQAPGKGLEWVARIRSKYNNYATYYADSVKDRFTISRDDAKNSLYLQMNSLRAEDTAVYYCVRHGNFGNSYVSWFAYWGQGTLVTVSSGGGGSGGGGSGGGGSEIVLTQSPATLSVSPGERATLSCRSSTGAVTTSNYANWVQQKPGQAPRGLIGGTNKRAPGIPARFSGSLSGDEATLTISSLQSEDFAVYYCALWYSNLWVFGGGTKVEIK
# notes: scFv (VH-3xG4S-VK) fused to N-terminus of a human IgG1 Fc region; also called scFv-ized BG56P; not shown: human IgG1 Fc region, scFv fused to its N-terminus
# B2: BG87P-34 (antibody, V domains shown)
# VH: EVQLQESGGGLVQPGGSLRLSCAASGYSFSDYHINWVRQAPGKGLEWVGYIYPGSGHTKYNEKFKGRFTISRDTSSNTAYLQMNSLRAEDTAVYYCARSGIYHYVSSYYFDHWGQGTLVTVSS
# VL: DIQMTQSPSSLSASVGDRVTITCKASQDAGSAVAWYQQKPGKAPKLLIYWASTRHTGVPSRFSGSGSGTDFTLTISSLQPEDFATYYCQQYSSYTFGGGTKLEIK
# notes: Framework-swapped final lead (IGHV3-23 / IGKV1-39); also called BG87-34
# B3: humanized sp34 BG53P (antibody, V domains shown)
# VH: EVQLVESGGGLVQPGGSLRLSCAASGFTFNTYAMNWVRQAPGKGLEWVARIRSKYNNYATYYADSVKDRFTISRDDAKSSLYLQMNSLRAEDTAMYYCVRHGNFGNSYVSWFAYWGQGTLVTVSS
# VL: QAVVTQSPATLSVSPGERATLSCRSSTGAVTTSNYANWVQEKPGQLFTGLIGGTNKRAPGIPARFSGSLSGDEATLTISSLQSEDFAIYFCALWYSNLWVFGGGTKVEIK
# notes: also called hu-sp34
# B4: humanized sp34 BG56P (antibody, V domains shown)
# VH: B3 VH with S79N, M95V
# VL: B3 VL with Q1E, A2I, V4L, E41Q, L46A, F47P, T48R, I88V, F90Y
# Assays:
# [1] = biological target: T1, CD3ε (SPR analyte) (UniProt P07766 23-126, limits assumed); assay: SPR
# T1 sequence (P07766 23-126 limits assumed): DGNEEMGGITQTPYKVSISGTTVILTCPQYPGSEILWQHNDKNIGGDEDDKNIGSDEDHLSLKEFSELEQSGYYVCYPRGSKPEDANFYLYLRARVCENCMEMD
# [2] = biological target: T2, human native CD3 on live cells (HuT78, Jurkat) (human, UniProt P07766 23-207; P09693 23-182; P04234 22-171); assay: FACS, HuT78 cells, Test 1
# T2 construct: whole, on cells; also called human CD3
# T2 sequence (P07766 23-207, chain 1 of 3): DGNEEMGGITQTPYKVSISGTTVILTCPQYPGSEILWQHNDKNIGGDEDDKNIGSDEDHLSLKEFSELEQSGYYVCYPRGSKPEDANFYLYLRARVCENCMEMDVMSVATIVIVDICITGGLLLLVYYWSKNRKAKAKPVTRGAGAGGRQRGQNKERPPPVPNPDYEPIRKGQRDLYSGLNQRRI
# T2 sequence (P09693 23-182, chain 2 of 3): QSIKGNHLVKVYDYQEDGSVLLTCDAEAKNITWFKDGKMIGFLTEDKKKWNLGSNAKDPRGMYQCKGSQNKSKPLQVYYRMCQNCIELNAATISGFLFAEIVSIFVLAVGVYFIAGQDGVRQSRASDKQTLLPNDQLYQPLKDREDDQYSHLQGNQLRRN
# T2 sequence (P04234 22-171, chain 3 of 3): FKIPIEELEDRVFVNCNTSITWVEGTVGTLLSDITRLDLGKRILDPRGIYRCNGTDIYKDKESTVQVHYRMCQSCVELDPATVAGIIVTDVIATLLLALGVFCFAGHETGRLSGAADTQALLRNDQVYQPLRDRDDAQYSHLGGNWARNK
# Protocol: (§1) For affinity determination, antibodies were captured by anti-human Fc surface, and used in the affinity-assay based on surface plasmon resonance (SPR) technology. The binding activity of humanized sp34 to bind native CD3 on live cells was evaluated using HuT78 cells in a FACS based assay. Live HuT78 cells were seeded in 96-well plate, and were incubated with a series of dilutions of chimeric or humanized sp34. Mouse anti-Human IgG was used as second antibody to detect antibody binding to the cell surface. EC50 values for dose-dependent binding to human native CD3 were determined by fitting the dose-response data to the four-parameter logistic model with GraphPad Prism.
# [3] = biological target: T2, human native CD3 on live cells (HuT78, …); assay: flow cytometry on live HuT78 cells, mouse anti-human IgG secondary, MFI
# Protocol: as §1
# [4] = biological target: T2, human native CD3 on live cells (HuT78, …); assay: FACS, HuT78 cells
# Protocol: as §1
# [5] = biological target: T1, CD3ε (SPR analyte); assay: SPR, scFv-Fc
# [6] = biological target: T2, human native CD3 on live cells (HuT78, …); assay: flow cytometry on live HuT78 cells, mouse anti-human IgG secondary, MFI; remark: listed apart in the source
# Protocol: as §1
# [7] = biological target: T3, cyno CLDN6 (cyno); assay: flow cytometry on CHOK1/cyno CLDN6 cells, MFI(PE)
# T3 construct: whole, on cells; also called cynomolgus CLDN6
# [8] = biological target: T4, mouse CLDN6 (mouse, UniProt Q9Z262 1-219); assay: flow cytometry on CHOK1/mouse CLDN6 cells, MFI(PE)
# T4 construct: whole, on cells
# T4 sequence (looked up): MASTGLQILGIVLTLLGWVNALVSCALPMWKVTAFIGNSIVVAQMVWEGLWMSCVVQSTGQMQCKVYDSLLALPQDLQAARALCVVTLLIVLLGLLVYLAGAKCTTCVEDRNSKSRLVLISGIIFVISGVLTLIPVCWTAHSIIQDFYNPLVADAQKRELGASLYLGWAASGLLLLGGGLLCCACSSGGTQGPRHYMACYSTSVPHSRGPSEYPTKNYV
# [9] = biological target: T3, cyno CLDN6; assay: FACS, HEK293T_cyno-CLDN6 cells
# [10] = biological target: T5, human claudin 6 (CLDN6) (human, UniProt P56747 1-220); assay: FACS, HEK293-hCLDN6 cells
# T5 construct: also called human CLDN6; hCLDN6
# T5 sequence: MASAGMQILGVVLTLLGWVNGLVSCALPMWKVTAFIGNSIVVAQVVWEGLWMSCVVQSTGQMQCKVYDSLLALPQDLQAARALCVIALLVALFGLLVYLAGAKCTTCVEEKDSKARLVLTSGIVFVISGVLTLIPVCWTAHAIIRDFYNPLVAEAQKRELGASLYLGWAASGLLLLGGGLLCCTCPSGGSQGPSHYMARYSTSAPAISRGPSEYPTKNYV
# [11] = biological target: T5, human claudin 6 (CLDN6); assay: FACS, HEK293T-hCLDN6 cells
# [12] = biological target: T5, human claudin 6 (CLDN6); assay: flow cytometry on HEK293T/human CLDN6 cells, goat anti-human IgG secondary, MFI(PE)
# Protocol: For affinity determination, CLDN6 over-expressing HEK293T cells and cancer cell line PA-1 which express high levels of human CLDN6 were used to evaluate the binding activity of BG87P related engineering variants. Live cells were seeded in 96-well plate, and were incubated with a series of dilutions of chBG87P and engineered variants thereof. Goat anti-human IgG was used as second antibody to detect antibody binding to the cell surface. EC50 values for dose-dependent binding to CLDN6 expressing cell lines were determined by fitting the dose-response data to the four-parameter logistic model with GraphPad Prism. Cell binding activity of 1st round of BG87P humanization variants against HEK293T/human CLDN6 were compared to chBG87P and shown in FIG. 1A.
# [13] = biological target: T3, cyno CLDN6; assay: FACS, HEK293T-cyno-CLDN6 cells
# [14] = biological target: T6, human claudin 9 (CLDN9) (human, UniProt O95484 1-217); assay: flow cytometry on HEK293T/human CLDN9 cells, MFI(PE)
# T6 construct: also called human CLDN9
# T6 sequence: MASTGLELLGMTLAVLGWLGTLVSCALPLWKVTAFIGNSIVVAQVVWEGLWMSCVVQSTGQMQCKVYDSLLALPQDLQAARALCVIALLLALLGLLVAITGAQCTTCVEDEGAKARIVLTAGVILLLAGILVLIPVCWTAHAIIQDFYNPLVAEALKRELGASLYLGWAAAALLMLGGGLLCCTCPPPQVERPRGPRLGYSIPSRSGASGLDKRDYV
# [15] = biological target: T1, CD3ε (SPR analyte); assay: SPR, antibody captured by anti-human Fc
# Protocol: as §1
# [16] = biological target: T2, human native CD3 on live cells (HuT78, …); assay: FACS, HuT78 cells; remark: listed apart in the source
# Protocol: as §1
# [17] = biological target: T1, CD3ε (SPR analyte); assay: SPR, antibody captured by anti-human Fc; remark: listed apart in the source
# Protocol: as §1
# [18] = biological target: T2, human native CD3 on live cells (HuT78, …); assay: flow cytometry on live HuT78 cells, mouse anti-human IgG secondary, MFI; remark: listed apart in the source
# Protocol: as §1
Binder,Kd [1] [nM],koff [1] [s⁻¹],kon [1] [M⁻¹ s⁻¹],EC50 (read off the curve) [3] [µg/mL],EC50 [4] [nM],Kd [15] [nM],koff [15] [s⁻¹],kon [15] [M⁻¹ s⁻¹],EC50 [16] [nM],EC50 (read off the curve) [18] [µg/mL],other results
B1,9.08,0.000401,44200,~0.5,4.35,,,,,,EC50 [2]: 2.46 nM; Kd [5]: 4.98 nM; koff [5]: 0.00036 s⁻¹; kon [5]: 72200 M⁻¹ s⁻¹; EC50 (read off the curve) [6]: ~0.3 µg/mL
B2,,,,,,,,,,,EC50 (read off the curve) [7]: ~9 nM; binding result [8]: binds; EC50 [9]: 8.8 nM; FACS-Ec50 ratio to BG87P [10]: 1.17 ratio; FACS Emax ratio to BG87P [11]: 1.03 ratio; EC50 (read off the curve) [12]: ~10 nM; FACS Emax ratio to BG87P [13]: 1 ratio; binding result [14]: no binding (tested: about 250 nM (log 2.4))
B3,,,,~0.3,1.8,4.58,0.000484,106000,1.72,~0.3,Kd [17]: 2.65 nM; koff [17]: 0.000525 s⁻¹; kon [17]: 198000 M⁻¹ s⁻¹
B4,7.06,0.000325,46000,~0.7,4.69,7.06,0.000325,46000,4.69,~0.7,
